Assay results as given in the supplement of paper PMC9112550, “Optimization of the antimicrobial peptide Bac7 by deep mutational scanning” (BMC Biology, 2022).

test system: Escherichia coli TOP10; experiment: shrunken log2 fold change of peptide-encoding DNA abundance (4.5 h post-induction vs induction); higher = less antimicrobial activity (less host growth inhibition); conditions: time post-induction: 4.5 h; library: site-saturation at positions 5, 18, 19, 20
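Also: peptides expressed intracellularly from a pBAD plasmid library in pooled LB shake-flask culture, induced with 0.3% L-arabinose, DNA abundance read by NGS, three biological replicates, DESeq2 with apeglm shrinkage.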

RRIRRRPPRLPRPRPRPLCEPRP and RRIRWRPPRLPRPRPRPGIEPRP are within 0.2 log units of each other in “shrunken log2 fold change” value: 0.443 for the first, 0.281 for the second.

Compared with RRIRMRPPRLPRPRPRPHIKPRP, RRIRIRPPRLPRPRPRPPNAPRP is higher in “shrunken log2 fold change” value: -0.501 for the first, -0.0573 for the second.

First: RRIRMRPPRLPRPRPRPPASPRP
Second: RRIRVRPPRLPRPRPRPMNTPRP
The “shrunken log2 fold change” value of the first is higher: 1.65 for the first, -0.312 for the second.

Compared with RRIRRRPPRLPRPRPRPDCAPRP, RRIRQRPPRLPRPRPRPQSAPRP is lower in “shrunken log2 fold change” value: 0.345 for the first, -0.08 for the second.

First: RRIRLRPPRLPRPRPRPLSNPRP
Second: RRIRVRPPRLPRPRPRPGNFPRP
The “shrunken log2 fold change” value of the first is lower: -0.782 for the first, -0.131 for the second.

RRIRTRPPRLPRPRPRPPERPRP and RRIRCRPPRLPRPRPRPNATPRP are within 0.2 log units of each other in “shrunken log2 fold change” value: 0.351 for the first, 0.382 for the second.

Compared with RRIRRRPPRLPRPRPRPLYIPRP, RRIRTRPPRLPRPRPRPKPDPRP is higher in “shrunken log2 fold change” value: -0.466 for the first, 0.214 for the second.

Compared with RRIRRRPPRLPRPRPRPEFLPRP, RRIRLRPPRLPRPRPRPSMVPRP is lower in “shrunken log2 fold change” value: 0.441 for the first, -0.665 for the second.

Going from RRIRIRPPRLPRPRPRPLAPPRP to RRIRLRPPRLPRPRPRPPNWPRP, the “shrunken log2 fold change” value rises from 0.157 to 0.377.

RRIRFRPPRLPRPRPRPKMAPRP and RRIRRRPPRLPRPRPRPNAFPRP are within 0.2 log units of each other in “shrunken log2 fold change” value: -0.0582 for the first, -0.0721 for the second.

RRIRDRPPRLPRPRPRPCSPPRP and RRIRDRPPRLPRPRPRPRFDPRP are within 0.2 log units of each other in “shrunken log2 fold change” value: 0.0779 for the first, -0.0584 for the second.

Compared with RRIRRRPPRLPRPRPRPSCDPRP, RRIRVRPPRLPRPRPRPNILPRP is lower in “shrunken log2 fold change” value: 0.177 for the first, -0.426 for the second.

First: RRIRERPPRLPRPRPRPVHDPRP
Second: RRIRVRPPRLPRPRPRPCPAPRP
The “shrunken log2 fold change” value of the first is lower: -0.687 for the first, -0.121 for the second.

First: RRIRDRPPRLPRPRPRPATPPRP
Second: RRIRQRPPRLPRPRPRPFDFPRP
The “shrunken log2 fold change” value of the first is higher: 0.276 for the first, -0.404 for the second.

Compared with RRIRRRPPRLPRPRPRPMNTPRP, RRIRCRPPRLPRPRPRPTWDPRP is higher in “shrunken log2 fold change” value: -0.171 for the first, 0.151 for the second.

Going from RRIRVRPPRLPRPRPRPVTQPRP to RRIRGRPPRLPRPRPRPHEEPRP, the “shrunken log2 fold change” value rises from 0.12 to 0.383.

Compared with RRIRIRPPRLPRPRPRPESEPRP, RRIRGRPPRLPRPRPRPMFAPRP is higher in “shrunken log2 fold change” value: -0.0338 for the first, 1.57 for the second.

Compared with RRIRSRPPRLPRPRPRPFWRPRP, RRIRCRPPRLPRPRPRPYKLPRP is lower in “shrunken log2 fold change” value: 0.0559 for the first, -0.898 for the second.

First: RRIRTRPPRLPRPRPRPADAPRP
Second: RRIRARPPRLPRPRPRPQATPRP
The “shrunken log2 fold change” value of the first is lower: -0.0445 for the first, 0.389 for the second.

Compared with RRIRDRPPRLPRPRPRPRHEPRP, RRIRLRPPRLPRPRPRPIPHPRP is lower in “shrunken log2 fold change” value: -0.000978 for the first, -0.332 for the second.

Compared with RRIRDRPPRLPRPRPRPWCPPRP, RRIRDRPPRLPRPRPRPHTMPRP is lower in “shrunken log2 fold change” value: -0.422 for the first, -0.863 for the second.

First: RRIRMRPPRLPRPRPRPGLKPRP
Second: RRIRSRPPRLPRPRPRPFSWPRP
The “shrunken log2 fold change” value of the first is higher: 0.363 for the first, -0.197 for the second.

Compared with RRIRVRPPRLPRPRPRPVRSPRP, RRIRIRPPRLPRPRPRPTVMPRP is lower in “shrunken log2 fold change” value: 0.522 for the first, -0.0131 for the second.

RRIRHRPPRLPRPRPRPDRCPRP and RRIRHRPPRLPRPRPRPMKCPRP are within 0.2 log units of each other in “shrunken log2 fold change” value: -0.205 for the first, -0.0796 for the second.

RRIRYRPPRLPRPRPRPCECPRP and RRIRIRPPRLPRPRPRPEKFPRP are within 0.2 log units of each other in “shrunken log2 fold change” value: -0.0717 for the first, -0.247 for the second.

First: RRIRSRPPRLPRPRPRPQHEPRP
Second: RRIRTRPPRLPRPRPRPDTVPRP
The “shrunken log2 fold change” value of the first is lower: -0.296 for the first, -0.0391 for the second.

First: RRIRIRPPRLPRPRPRPDWNPRP
Second: RRIRARPPRLPRPRPRPMNYPRP
The “shrunken log2 fold change” value of the first is lower: -0.993 for the first, -0.182 for the second.

RRIRRRPPRLPRPRPRPAINPRP and RRIRWRPPRLPRPRPRPLLSPRP are within 0.2 log units of each other in “shrunken log2 fold change” value: -0.0133 for the first, 0.148 for the second.

First: RRIRGRPPRLPRPRPRPGQDPRP
Second: RRIRARPPRLPRPRPRPMYIPRP
The “shrunken log2 fold change” value of the first is higher: 0.605 for the first, -0.345 for the second.

RRIRLRPPRLPRPRPRPVIMPRP and RRIRYRPPRLPRPRPRPTSAPRP are within 0.2 log units of each other in “shrunken log2 fold change” value: -0.0794 for the first, 0.0113 for the second.

First: RRIRWRPPRLPRPRPRPATGPRP
Second: RRIRKRPPRLPRPRPRPLSWPRP
The “shrunken log2 fold change” value of the first is lower: 0.0426 for the first, 0.826 for the second.

Compared with RRIRNRPPRLPRPRPRPITVPRP, RRIRFRPPRLPRPRPRPSQTPRP is lower in “shrunken log2 fold change” value: -0.0598 for the first, -0.304 for the second.

Going from RRIRGRPPRLPRPRPRPEQVPRP to RRIRNRPPRLPRPRPRPESGPRP, the “shrunken log2 fold change” value falls from 0.995 to -0.0271.

Compared with RRIRHRPPRLPRPRPRPENFPRP, RRIRVRPPRLPRPRPRPFFAPRP is higher in “shrunken log2 fold change” value: -0.0249 for the first, 0.238 for the second.

First: RRIRVRPPRLPRPRPRPIGEPRP
Second: RRIRQRPPRLPRPRPRPSWKPRP
The “shrunken log2 fold change” value of the first is higher: 0.0407 for the first, -0.244 for the second.

First: RRIRNRPPRLPRPRPRPHWIPRP
Second: RRIRNRPPRLPRPRPRPDRDPRP
The “shrunken log2 fold change” value of the first is lower: -0.322 for the first, 0.0416 for the second.

RRIRTRPPRLPRPRPRPPLLPRP and RRIRDRPPRLPRPRPRPPMKPRP are within 0.2 log units of each other in “shrunken log2 fold change” value: 0.172 for the first, 0.131 for the second.

With RRIRERPPRLPRPRPRPNHSPRP the “shrunken log2 fold change” value was -0.594.
